{"source": "patent US20220135687A1", "about": "(NANJING LEGEND BIOTECH, published 2022)", "key": {"[1]": {"target": "T1, human PD-L1 expressed on CHO-K1 cells (Genscript, Cat #M00543) (human, UniProt Q9NZQ7 19-290)", "T1 construct": "also called PD-L1 cell line", "T1 sequence (Q9NZQ7 19-290, one chain of several)": "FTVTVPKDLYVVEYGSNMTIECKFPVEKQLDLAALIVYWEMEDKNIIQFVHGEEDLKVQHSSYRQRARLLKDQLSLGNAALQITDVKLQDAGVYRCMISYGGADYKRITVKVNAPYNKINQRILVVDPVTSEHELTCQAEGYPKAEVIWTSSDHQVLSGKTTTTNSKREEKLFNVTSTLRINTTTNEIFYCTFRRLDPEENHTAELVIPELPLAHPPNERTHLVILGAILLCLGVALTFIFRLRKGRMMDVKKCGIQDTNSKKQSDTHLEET", "assay": "FACS on CHO-K1 cells expressing human PD-L1, PE-labeled goat anti-mouse IgG secondary antibody", "method": "(§1) PD-L1 stable cell line binding activity assessment of 12 mouse mAbs was carried out using FACS. CHO-K1 cells expressing human PD-L1 (Genscript, Cat #M00543) were dissociated from adherent culture flasks and mixed with varying concentrations of antibodies. The antibody and cells were incubated for 30 minutes at room temperature, washed three times with FACS buffer (PBS containing 1% BSA). PE-labeled goat anti-mouse IgG (minimal x-reactivity) secondary antibody (BioLegend, Cat #405307) was added and incubated at room temperature for 15 minutes. Cells were washed again with FACS buffer and analyzed by FACSCalibur (BD Bioscience, San Jose, Calif.) and Flowjo software. Data were analyzed with Prism 6 (GraphPad Software, San Diego, Calif.) using non-linear regression, and EC₅₀ values were calculated (FIGS. 2A-2L and Table 3)."}, "[2]": {"target": "T1, human PD-L1 expressed on CHO-K1 cells …", "assay": "FACS, CHO-K1/human PD-L1 cells", "method": "as §1"}, "[3]": {"target": "T1, human PD-L1 expressed on CHO-K1 cells …", "assay": "cell-based or functional assay"}, "[4]": {"target": "T1, human PD-L1 expressed on CHO-K1 cells …", "assay": "FACS competition vs biotin-PD-1-Fc on CHO-K1/human PD-L1 cells", "method": "A series of diluted mouse mAbs (concentration starting from 900 nM, 3 fold dilution, 50 μl per well) were added afterwards. The mixture was incubated at 4° C. for 30 minutes, washed twice with wash buffer, followed by the addition of PEcy5/streptavidin (1 μg/ml, 150 μl/well). The plates were again incubated at 4° C. for 30 minutes before the cells in each well were analyzed by FACSCalibur (BD Bioscience, San Jose, Calif.) and Flowjo software."}, "[5]": {"target": "T2, His-tagged PD-L1 ECD protein (ACROBiosystems) (human, UniProt Q9NZQ7 19-238)", "T2 construct": "Bought protein; also called PD-L1-His; PD-L1/His; not shown: His tag", "T2 sequence (Q9NZQ7 19-238)": "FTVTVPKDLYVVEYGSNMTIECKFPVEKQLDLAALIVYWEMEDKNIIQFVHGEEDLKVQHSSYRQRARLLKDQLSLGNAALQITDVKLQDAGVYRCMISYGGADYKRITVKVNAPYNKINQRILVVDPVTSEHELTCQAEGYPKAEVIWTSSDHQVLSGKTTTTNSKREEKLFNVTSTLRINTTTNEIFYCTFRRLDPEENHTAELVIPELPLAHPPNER", "assay": "SPR, mAb captured via anti-Fc, PD-L1-His analyte", "method": "Briefly, capturing antibody (anti-mouse Fc antibody for the affinity measurement of mouse mAbs, or anti-human Fc antibody for the affinity measurement of chimeric and humanized mAbs, GE healthcare) was immobilized on a Biacore™ CM5 chip to approximately 7,000 RU using EDC-activated amine coupling chemistry. Antibody of interest (5 μg/ml) was captured for 60 seconds onto the sensorchip surface. His-tagged PD-L1 ECD protein (ACROBiosystems) was flowed over the sensorchip surface at a series concentrations. Flow rate was 30 μl/min in all experiments. Association and dissociation phases were 5 and 15 min, respectively. The chip was regenerated using Glycine/HCl pH 1.5. Captured antibody and antigen were removed between each cycle using 50 mM HCl in order to ensure a fresh binding surface for each concentration of antigen. The resulting sensorgrams were fit globally using a 1:1 binding model in order to calculate on- and off-rates (ka and kd, respectively), as well as affinities (KD)."}}}
{"binder": "18B7F4G8 (antibody, V domains shown, Mouse mAb from hybridoma culture) VH: DVQLQESGPDLVKPSQSLSLTCTVTGYSITSGYTWHWIRQFPGNKLEWMGYIHYSGSTKYNPSLKSRFSITRDTSKNQFFLQLNSMTAEDTATYYCARNSLFASWGHGTLVTVSA VL: DIVLTQSPASLAVSLGQRATISCRASESVDTYGDSFMHWFQQKPGQPPKLLIYRASNLESGIPARFSGSGSRTDFTLTINPVEADDVATYYCQQSNEAPYTFGGGTKLEIK", "values": [{"measurement": "EC50 (read off the curve)", "setting": "[1]", "value": "~3", "unit": "nM"}, {"measurement": "EC50", "setting": "[2]", "value": 0.62, "unit": "nM"}, {"measurement": "Top (best-fit value)", "setting": "[2]", "value": 399}, {"measurement": "EC50, PD-L1 cell-based luciferase reporter assay", "setting": "[3]", "value": 2.27, "unit": "nM"}]}
{"binder": "53C1F3D4 (antibody, V domains shown, Mouse mAb from hybridoma culture; also called mouse 53C1F3D4) VH: QVQLQQSGNELARPGASVRLSCKASGYIFTGYGITWVRQRPGQGLEWIGEIFPRRVNTYYSEKFKGRATLTADISSSTAYMELRSLTSEDSAVYFCARDYDPYFALDYWGQGTSVTVSS VL: DIVMTQSHKFMSTSVGDRVSITCKASQDVSTAVDWYQQKPGQSPKLLIYSASYRYTGVPDRFTGSGSGTAFTFTISGEQAEDLAVYYCQQHYSIPFTFGGGTKLEIK", "values": [{"measurement": "IC50", "setting": "[4]", "value": 1.27, "unit": "nM"}, {"measurement": "Kd", "setting": "[5]", "value": 0.61, "unit": "nM"}, {"measurement": "koff", "setting": "[5]", "value": 0.00019, "unit": "s⁻¹"}, {"measurement": "kon", "setting": "[5]", "value": 320000, "unit": "M⁻¹ s⁻¹"}, {"measurement": "EC50", "setting": "[2]", "value": 3.73, "unit": "nM"}, {"measurement": "Top (best-fit value)", "setting": "[2]", "value": 2020}, {"measurement": "EC50, PD-L1 cell-based luciferase reporter assay", "setting": "[3]", "value": 4.45, "unit": "nM"}]}
